For 2 proteins, Km, kcat and kcat/Km results are on record in paper PMC7077851, “Comparative analysis of the human serine hydrolase OVCA2 to the model serine hydrolase homolog FSH1 from S. cerevisiae” (PLoS ONE, 2020).

Test in all cases: purified protein
What all share (type): biochemical, Homo sapiens

Substrate in data set [1]: CC(=O)Oc1ccc([N+](=O)[O-])cc1
The conditions noted are these: PBS, 0.1 mg/mL acetylated BSA, 1% acetonitrile, 25 °C.

Substrate in data set [2]: CCCC(=O)Oc1ccc([N+](=O)[O-])cc1
As to conditions: PBS, 0.1 mg/mL acetylated BSA, 1% acetonitrile, 25 °C.

Substrate in data set [3]: CCCCCCCC(=O)Oc1ccc([N+](=O)[O-])cc1
The conditions noted are these: PBS, 0.1 mg/mL acetylated BSA, 1% acetonitrile, 25 °C.

Substrate in data set [4]: CCCCCCCCCC(=O)Oc1ccc([N+](=O)[O-])cc1
The conditions noted are these: PBS, 0.1 mg/mL acetylated BSA, 1% acetonitrile, 25 °C.

Substrate in data set [5]: CCCCCCCCCCCC(=O)Oc1ccc([N+](=O)[O-])cc1
The conditions noted are these: PBS, 0.1 mg/mL acetylated BSA, 1% acetonitrile, 25 °C.

Substrate in data set [6]: CCCCCCCCCCCCCC(=O)Oc1ccc([N+](=O)[O-])cc1
The conditions noted are these: PBS, 0.1 mg/mL acetylated BSA, 1% acetonitrile, 25 °C.

Substrate in data set [7]: COCC(=O)OCOc1ccc2c(c1)Oc1cc(OCOC(=O)COC)ccc1C21OC(=O)c2ccccc21
The conditions noted are these: PBS, 0.1 mg/mL acetylated BSA, 25 °C.

Substrate in data set [8]: COCCOCC(=O)OCOc1ccc2c(c1)Oc1cc(OCOC(=O)COCCOC)ccc1C21OC(=O)c2ccccc21
As to conditions: PBS, 0.1 mg/mL acetylated BSA, 25 °C.

B1: OVCA2 (Homo sapiens) (protein)
chain: MAAQRPLRVLCLAGFRQSERGFREKTGALRKALRGRAELVCLSGPHPVPDPPGPEGARSDFGSCPPEEQPRGWWFSEQEADVFSALEEPAVCRGLEESLGMVAQALNRLGPFDGLLGFSQGAALAALVCALGQAGDPRFPLPRFILLVSGFCPRGIGFKESILQRPLSLPSLHVFGDTDKVIPSQESVQLASQFPGAITLTHSGGHFIPAAAPQRQAYLKFLDQFAE
A word on the Km: it is the concentration of substrate that gives half-maximal velocity. The term kcat denotes the maximal rate divided by the concentration of active sites. As a reminder, the kcat/Km is the second-order rate constant that governs catalysis at low substrate concentration. B1: the Km in “purified protein [1]” came out at 1400 ± 600 µM; in “purified protein [2]”, 2900 ± 100 µM; in the data set “purified protein [3]” it was 6.1 ± 5.7 µM; in the data set “purified protein [4]”, 3.84 ± 1.1 µM; in the data set “purified protein [5]”, 29 ± 19 µM; in “purified protein [6]”, 17 ± 14 µM. Besides, the values for the Km in the data set “purified protein [7]” and in “purified protein [8]” were 12 ± 5 µM and 3.7 ± 0.8 µM, respectively. Moreover, the kcat in the data set “purified protein [1]” was found to be 0.26 ± 0.03 s⁻¹; in “purified protein [3]” it was 0.023 ± 0.005 s⁻¹; in the data set “purified protein [4]”, 0.025 ± 0.001 s⁻¹; in “purified protein [5]” it was 0.076 ± 0.01 s⁻¹; in the data set “purified protein [6]”, 0.076 ± 0.01 s⁻¹; in “purified protein [7]”, 0.0013 ± 0.0002 s⁻¹. Also, the kcat in the data set “purified protein [8]” amounted to 0.0012 ± 0.0001 s⁻¹. Moreover, the kcat/Km in “purified protein [1]” amounted to 200 ± 50 M⁻¹ s⁻¹; in “purified protein [3]”, 3800 ± 1800 M⁻¹ s⁻¹; in “purified protein [4]”, 6800 ± 1000 M⁻¹ s⁻¹; in “purified protein [5]” it was 2700 ± 950 M⁻¹ s⁻¹; in “purified protein [6]”, 4500 ± 1800 M⁻¹ s⁻¹; in the data set “purified protein [7]”, 100 ± 40 M⁻¹ s⁻¹. In addition, the kcat/Km in “purified protein [8]” amounted to 330 ± 70 M⁻¹ s⁻¹.

B2: OVCA2 (Homo sapiens; D179A) (protein)
chain: MAAQRPLRVLCLAGFRQSERGFREKTGALRKALRGRAELVCLSGPHPVPDPPGPEGARSDFGSCPPEEQPRGWWFSEQEADVFSALEEPAVCRGLEESLGMVAQALNRLGPFDGLLGFSQGAALAALVCALGQAGDPRFPLPRFILLVSGFCPRGIGFKESILQRPLSLPSLHVFGDTAKVIPSQESVQLASQFPGAITLTHSGGHFIPAAAPQRQAYLKFLDQFAE
In the case of B2, the Km is 2.0 ± 0.2 µM in the data set “purified protein [3]”, 3.2 ± 1.5 µM in “purified protein [4]”, 1.1 ± 0.6 µM in the data set “purified protein [5]” and 5.7 ± 1.9 µM in the data set “purified protein [6]”. Besides, the kcat/Km in “purified protein [3]” amounted to 0.5 ± 0.3 M⁻¹ s⁻¹; in “purified protein [4]” it was 11 ± 3 M⁻¹ s⁻¹; in the data set “purified protein [5]” it was 69 ± 20 M⁻¹ s⁻¹; in the data set “purified protein [6]” it was 7.8 ± 1.4 M⁻¹ s⁻¹. The kcat in “purified protein [4]” stood at 3.7e-05 ± 4e-06 s⁻¹; in the data set “purified protein [5]”, 7.3e-05 ± 8e-06 s⁻¹; in “purified protein [6]”, 4.6e-05 ± 4e-06 s⁻¹.
